According to publication PMC10644352, “Bromodomain Factor 5 as a Target for Antileishmanial Drug Discovery” (ACS Infectious Diseases, 2023):
No end group written: not given here.

Assays:
[1] = biological target: T1, Leishmania donovani bromodomain factor 5 (LdBDF5) second bromodomain, recombinant BD5.2 (Leishmania donovani); assay: fluorescence polarisation; 800 nM 5-FAM peptide, protein 0-300 μM; 20 mM HEPES, 500 mM NaCl, 1 mg/mL BSA, pH 7.5; 30 min at room temperature; one-site-specific binding fit (two-site for BD5T); n = 3; conditions: both partners purified
T1 construct: L. donovani BDF5 (LDBPK_091320), construct with the second bromodomain; His-tags were not cleaved for BD5.2; Expected mass 17.9 kDa; Monomer by SEC-MALLS; also called LdBDF5 BD5.2; source: E. coli Rosetta2 (DE3) pLysS, purified (IMAC, SEC)

[2] = biological target: T2, Leishmania donovani bromodomain factor 5 (LdBDF5) first bromodomain, recombinant BD5.1 (Leishmania donovani); assay: as above; conditions: both partners purified
T2 construct: L. donovani BDF5 (LDBPK_091320), construct with the first bromodomain; Plasmid from the Structural Genomics Consortium, pET-15-MHL backbone (Addgene plasmid #26092), which encodes a cleavable His-tag; His-tags were not cleaved for BD5.1; Expected mass 15.2 kDa; Monomer by SEC-MALLS; also called LdBDF5 BD5.1; LdBDF5.1; source: E. coli Rosetta2 (DE3) pLysS, purified (IMAC, SEC)

Which Kd [1] does the source give for AK(Ac)GK(Ac)RSADAK(Ac)SSQK(Ac)R (also: 5-FAM at N-terminus or via ethylene diamine linker at C-terminus) [5-FAM-labeled H4(1-15)K2Ac K4Ac K10Ac K14Ac peptide of L. donovani histone H4] here?
The Kd was 353 µM.

And the Kd [2]?
The Kd was 137 µM.
